For five molecules, Polyclonal antibody-binding activity (abs@450 nm) and Elution rate [%] results are on record in US20250002543A1.

Residue numbers refer to the chain shown, from its start.

Experiment [1] concerns the target Herceptin containing human κ light chain subgroup 1 (Vκ1) (manufactured by Chugai Pharmaceutical Co., Ltd.). Description: ELISA; antibody immobilised, binding protein added, Anti-6-His detection (method of Example 21(4)).
Experiment [2] has as its target human CTLA4 antibody containing human κ light chain subgroup 3 (Vκ3) (manufactured by R&D Systems). The description is as above.
The target in experiment [3] is Herceptin containing human κ light chain subgroup 1 (Vκ1) (manufactured by Chugai Pharmaceutical Co., Ltd.). Description: ELISA; antibody immobilised (10 ug/mL), binding protein at 50 ug/mL, Anti-6-His detection, blank-subtracted.
Experiment [4] has as its target human CTLA4 antibody containing human κ light chain subgroup 3 (Vκ3) (manufactured by R&D Systems). The description is as above.
The target of experiment [5] is human PCSK9 antibody containing human κ light chain subgroup 4 (Vκ4) (manufactured by R&D Systems). The description is as above.
Experiment [6] has as its target human PDGF R alpha antibody containing human κ light chain subgroup 3 (Vκ3) (manufactured by R&D Systems). The experiment is described as above.
In experiment [7] the target is Herceptin containing human κ light chain subgroup 1 (Vκ1) (manufactured by Chugai Pharmaceutical Co., Ltd.). The experiment is described as follows: ELISA; Herceptin immobilised, binding protein at 2 ug/mL, dissociation with 0.05 M citric acid pH 2.4 for 2 min, absorbance ratio to wells without dissociation.

B1: FpL_C3KR (designed binder)
chain: ETPEEPREEVTIRVNLIFADGRIQTAEFRGTFEEATARAYAYANLLARENGEYTADLEDGGNTINIRFAGHHHHHH
As for B1, the Polyclonal antibody-binding activity (abs@450 nm) turned out to be 0.86 abs@450 nm in experiment [1]; 0.07 abs@450 nm in experiment [2]; 0.92 abs@450 nm in experiment [3]; 0.32 abs@450 nm in experiment [4]; 0.77 abs@450 nm in experiment [5]; 0.21 abs@450 nm in experiment [6].

B2: FpL_C3KX_5e_P6S (designed binder)
chain: B1 chain with P6S, R7A, R29I, E49D, N50Y, E52G, Y53F, N62Y
In the case of B2, the values for the Polyclonal antibody-binding activity (abs@450 nm) in experiment [1] and in experiment [2] were 0.98 abs@450 nm and 0.78 abs@450 nm, respectively.

B3: FpL_C3KX 7b (designed binder)
chain: B1 chain with E4G, R7A, E27R, R29I, E49D, N50Y, E52D, Y53F, N62Y
In the case of B3, in experiment [7], the Elution rate [%] was determined as 61%.

B4: FpL_C3KX 7c (designed binder)
chain: B1 chain with E4G, R7A, R29I, A47R, E49D, N50Y, E52D, Y53F, N62Y
On to B4, for which, in experiment [7], the Elution rate [%] was determined as 59%.

B5: FpL_C3KX 5e (designed binder)
chain: B1 chain with R7A, R29I, E49D, N50Y, E52G, Y53F, N62Y
As to B5, the Polyclonal antibody-binding activity (abs@450 nm) amounted to 0.96 abs@450 nm in experiment [1] and 0.06 abs@450 nm in experiment [2].
